The nature of this series: yeast display, Sf9 membrane polyspecificity reagent, FACS + sequencing; frameworks hold sequencing errors. Summed up: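 Using colony PCR, genes from sorted yeast display clones were amplified, then sequenced on MiSeq at 2 × 250 and filtered by CDR length. The clones had been stained with 10% biotinylated, detergent-solubilized Sf9 membrane reagent for 1 hour at 4 °C and sorted by FACS into low and high (top ~1%) gates on anti-HA and streptavidin fluorescence. Polyreactivity labels come from the gate of origin.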
As to “QVHLVESGGGLVQAGGSLRLSFAAYGIIFKYYAMVWYRQAPGKERELVASITDRGGSTYYSDSLKGRFTISRDNAKNTFYLQMNSLKPEDTAVYYCAAVPSTGKSGIRGGYWGQCTQVTVSS”, the “polyreactivity (PSR sort gate)” value was “high polyreactivity”.

Consider “QVHLVESGGGLVQAGGSLRLSSAASGITFVINAMGWYRQAPGKERELVASINFDTDTTYADSEKGRFTISRDNAKNTVYLQMNSLKPEDTAVYYCNADLPWARHTVDSIEFDYWGQGTQVTVSS”, for which the “polyreactivity (PSR sort gate)” value is “low polyreactivity”.

Consider “QVHLVESGGGLVQAGGSLRLSSPASGRIFQDNAMGWYRQAPGKERELVAAISSSGGSTYYADSVKGRFTISRDNAKNTVYLHMNSLKPEDTAVYYCAADYYWYWDLYDYWGQGTQVSVSS”, for which the “polyreactivity (PSR sort gate)” value is “high polyreactivity”.

As to “QVHLVESGGGLVQAGGSLRLTCAASGFTFQGYAMGRYRQAPGKERELVAAISIGGVRTYYADSVKGRFTISRDNAKNTVYLQMNSLKPEDTAVYYCAKDGSKLSSYNYWGQGTQVTVSS”, the “polyreactivity (PSR sort gate)” value is on record as “high polyreactivity”.

Consider “QVHLVESGGGLVQAGGSLRLTCAASGIIFRWYAMGWYRQAPGKERELVAAISSGGGRTHYADSVKGRFTISRDNAKNTVYLQMNSLKPEDTAVYYCAAALRGQSSRFDYWGQGTQVTVSS”, for which the “polyreactivity (PSR sort gate)” value is “high polyreactivity”.

For the sequence “QVHLVESGGGLVQAGGSLRLTCAASGSIFRFYTMGWYRPATGKERELVATISRGGSTNYADSVKGRFTISRDNAKNSVSLQMNSLKPEVTGVYYCNFGALYSTYWGYGYDYWGQGTQVTVSS”, the “polyreactivity (PSR sort gate)” value is on record as “high polyreactivity”.

With “QVHLVESGGGLVQAGGSLRLTCSASGFTFSTYAMGWYRPAPGKESEMVAVISWNGGSTYYADTVKGRFTISRYNAKNTVYLQMNSLKTEDTAVYYCAARGSFKKGYWGQGTQVTVSS”, the “polyreactivity (PSR sort gate)” value is “high polyreactivity”.

Turning to “QVHLVESGGGLVQAGGSLRVSCAASGSIFLDNAMGWYRQAPGKERELVADISYSGGSTYYADSVKGRFTISRDNAKNTVYLQMISLKPEDTAVYYCAAGVQLTVPPLRSSVTEYDYWGQGSQVTVSS”, the “polyreactivity (PSR sort gate)” value is reported as “low polyreactivity”.

As for “QVHLVESGGGLVQAGGSLRVSCAASGSIFPDNAMGWYTQAPGKERELVAAITFSGGRTYYADSVKGRFTISRDNAKNTVYLQMNSQKPEDTAVYYCATAKGVKLYRYPDYSGYYPYDYWGQGTQVTVSS”, the “polyreactivity (PSR sort gate)” value is reported as “high polyreactivity”.

As to “QVHLVESGGGLVQAGGSLSLSCAASGFTYTSYAMGWYRQAPGTEREFVAAIRRSGSGTYYADSVKGRFTISRVNAKNTVYLQMNSLNPEDTAVYYCAVVPPRLYYHYDYWGQGTQVTVSS”, the “polyreactivity (PSR sort gate)” value is “high polyreactivity”.

For “QVHLVESGGGLVQAGVSLRLSCAASGSIFEGNGMGWYRQAPGKERELVAAITFRSGSTYYADSVKGRFTNSRDNAKNTVYLQMNSLKPEDTAVYYCAADEYYQVSAYDYWGQGTKVTVSS”, the “polyreactivity (PSR sort gate)” value was “low polyreactivity”.

As for “QVHLVESGGGLVQAGVSLRLSCPASGIIFWFYAMGWYRQSPGKERQLVAAISGDGDSTYYADSVKGRFTISRDNAKNTVYLQMNSLKPEDTAVYYCAAEWDPVFATDEDDYWGQRTQVTVSS”, the “polyreactivity (PSR sort gate)” value is on record as “low polyreactivity”.

Turning to “QVHLVESGGGLVQEGGSLRLTSAASGITFVRNTLGWYRQAPGKERELVAAIDSGGNTYADSVKGRFTITRDNAKNTVYLQMNSLKPEDTAVYFCAVDGGEVSSYGYWGQGTQVTVSS”, the “polyreactivity (PSR sort gate)” value was “low polyreactivity”.

In the case of “QVHLVESGGGLVQSGGSLRLSCAASGRIFYYNAMGWYRQAPGKERELVAAITSSSGSSTYYADSVKGRFTISRDNAKNTVYLQMNSLKPEDTAVYYCAADATFIIRYLSRSDYWGQGTQVTVSS”, the “polyreactivity (PSR sort gate)” value was “low polyreactivity”.

For “QVHLVESGGPLVQAGGSLRLSCAASGYTFWGNAMGWYRQAPGKERELVAGITGSGVSTYYADSVKGRFTISRDNAKNTVYLQMNNLKPEDTAVYYCARRVVFAHKYATSYFLLEYGYWGQGTQVSVSS”, the “polyreactivity (PSR sort gate)” value is “low polyreactivity”.

Regarding “QVHLVESGGRLVQAGGSIRLSCAASGLTYGSYAMGWYRQAPGKERELVAAIYQSGGSTYYADSVMARFTISRDNANNTVYLQMNRLKPEDTVVYYCNAEAWVTLDWWQWVAYDFWGQGTQVTVSS”, the “polyreactivity (PSR sort gate)” value is “high polyreactivity”.

Take “QVHLVESGGRLVQAGGSLRLSCAESGFTFGSNVKGAYRQAPGKEREFVDAITSSGRTKYADSVKGRFTISRDNAKNTVYLQMNSLKPEDTAVYYCAARPSQWNYDYRRVYYWVQGTQVTVSS”: the “polyreactivity (PSR sort gate)” value is listed as “high polyreactivity”.

For “QVHLVESGGVLVQAGGSLRLSCAASAGNFDTYAMGRYRQAPGKEREMVADITWSGGSTYYADSVKGRFTISRDNAKNTVYLQMNSLKPEDTAVYYCNADDPSKLGYEPDYWGQGTQVTVSS”, the “polyreactivity (PSR sort gate)” value was “low polyreactivity”.

On to “QVHLVESGGVLVQAGGSLRLSCAASGFTFNRYAMGWYRQAPGKERELVAAITSAGNTYYADSVKARFTNSRDNGKNTVYLQMNSMKPEDTAVYYCLNGRYWRRYDYWGQGTQVTVSS”, for which the “polyreactivity (PSR sort gate)” value is listed as “high polyreactivity”.

With “QVHLVESGGVLVQAGGSLRLSCAASGSIFDDYAMGWYRQAPGKERELVAAISSSGTSTYYADSVKGRFTISRDTANNTVYLQMNSLKPEDTAVYYCAARSAILDYWGQGTQVTVSS”, the “polyreactivity (PSR sort gate)” value was “low polyreactivity”.

As to “QVHLVESRGVLVQAGCSLRLSCAASGRIFTDYAMGWYRQAPRKERELVAAISGSGGSTYYADSVKVRFSISRDNAKNNVYLQMNSLKPEDTAVYYCAARVARRYEWGQGTQVTVSS”, the “polyreactivity (PSR sort gate)” value is reported as “high polyreactivity”.

For “QVHLVESRGVLVQAGGSLRLSCAASGRTFGYYAMGWYRQAPGKERELVAAINGSGSRTYYADSVKGRFTISRDNAKNSVYLQMNSLKPEDSAVYYCAATYPKYQYDYWGQGTQVTVSS”, the “polyreactivity (PSR sort gate)” value is “high polyreactivity”.

As to “QVHLVESVGGLVQAGGSLRLSCAASGYIFGGYAMAWYRQAPGKERELVAAISRSGGSTYYADSVKGRFTISRDNAKNTVYLQINSLKPVDTAVYYCAVRGYTLPYGYWGQGTQVTVSS”, the “polyreactivity (PSR sort gate)” value is listed as “high polyreactivity”.

For “QVHLVESVGGLVQAGGSLRLSSPASGGTLWVNTMGWYRQAPGKERELVAAISRRGGSTYYADSVKGRFTISRDNAKNTVYLQMNSRKPEDTAVYYCNARENAVSLRDYWGQGTQVTVSS”, the “polyreactivity (PSR sort gate)” value is reported as “high polyreactivity”.

On to “QVHLVESWGGLVQAGGSLRLSCAASGSTFGYNAMGWYRQAPGKERELVAAITSGGSTNYADSVKGRFTISRDNAKNTVYLQMNSLKPEDTAVYYCAKLAADRRSYYWGQGTQVTVSS”, for which the “polyreactivity (PSR sort gate)” value was “high polyreactivity”.

As to “QVHLVQSGGGLVQAGGSLRLSCAASGSILYFYAKGWYRQAPGKERELVAAISWTGGSTYYADSVKGRFTISRDNAKNTVYLQMNSLKPEDTAVYYCAAELWYEGYDYWGQGTQVTVSS”, the “polyreactivity (PSR sort gate)” value is given as “high polyreactivity”.

Consider “QVHLVVSGGGLVQAGRSLRLICAASGSTFKAYAMGWYRQAPGKERELVAAITRRGTSTYYADSVKGRFTISRDNAKKTVYLQMNSLKPEDTADYYSNAKYVSDRSSAVSFDYWGQGTQVTVSS”, for which the “polyreactivity (PSR sort gate)” value was “low polyreactivity”.

On to “QVHQQESGGDLEQAGGSLRLSCTASGTISDVRFMGWYRQAPGKERELVATISYVTITYYADSVKGRFTISRDSEKHRVSADDEHETGRYRGVFLLYYWGLGTQVTVSS”, for which the “polyreactivity (PSR sort gate)” value was “low polyreactivity”.

For “QVHRVESGGGLVQAGGSLRLSCDASGNIFYDYAMGWYRQGPGKERELVAAIDLSDGSTYYSDSVKGRFTISRDNAKNTVYFQMNSLKPDDTAVYYCAADIIAAWTSDYYYWGQGSQVTVSS”, the “polyreactivity (PSR sort gate)” value is listed as “high polyreactivity”.

With “QVHRVESGGGLVQAGGSLRVSCAATGINFSDYAMGWYRQEPGKERQLVAAITGGGSTYYADSVKGRFTISRDNAKNTVYLQMNSLKPEDTAVSYCNAVWARLWIRSTEVDYRGQGTQVTVSS”, the “polyreactivity (PSR sort gate)” value is reported as “low polyreactivity”.

“QVKHVESGGGLVQAGCILRLSCSASGSTFARYAMGWYRQSPGKERELVAGISQSGGTTYYADSVKGRFTISRDNEKNTVYLQMNSLKPEDTAVYYCAARRWVAYTLEYWGQGTQVTVSS”: the “polyreactivity (PSR sort gate)” value is “high polyreactivity”.

Take “QVKIVESGGGLVQAGGSLRLSCAASGGIFNWYAMGWYRPAPGKERELVAAITQSGGSTYYADSVKGRFTISRDNAKNTEYLQMNSLKPEDTAVYYCNKDQEKFWTAFNTIGRAREYDYWGQGTQVTVSS”: the “polyreactivity (PSR sort gate)” value was “low polyreactivity”.

Regarding “QVKLEESGGGLVQAGGSISLSCAASGSIFFWYTMGCYRQAPGKERELVATITGSGSSTTYADSVKGRFTISRDNAKNTVYLQMNSLKPEDTAVYYCAAADIIDHSFTYDYWGQGTQVTVSS”, the “polyreactivity (PSR sort gate)” value was “low polyreactivity”.

“QVKLEESGGGLVQAGGSLRLSCAASGSTFPGNAMGSYRQAPGKERELVAAINWSGDSTYYADSVKGRFTNSRDKPKNTVYLQMNSLTPEDTAVYYCAAYGDGYYYWGQGTQVTVSS”: the “polyreactivity (PSR sort gate)” value is listed as “low polyreactivity”.

For “QVKLQESGGSHVQAGGSLRLSCAASGFIFARNYIGWYRQAPCKERELVAGIGVRASTNYADSDKGRFTISRDNAKNSVYLQMNSLEPEDTAVYYCAVGDTVLGYHYYWGQGTQVTVSN”, the “polyreactivity (PSR sort gate)” value is on record as “low polyreactivity”.

As for “QVKLVDSGGGLVQAGGSLRLTCAASGRTLGRNGMGWYRQDPGKERELVAAISLSGGRSYADSVKGRFTISRDNAKNSVYLQMNSLKPEDTAVYYCAKVGYSRRYAYNVYYWGQGTQLTVSS”, the “polyreactivity (PSR sort gate)” value is “low polyreactivity”.

With “QVKLVESAAGLVQPGGSHRLSCAASGRIFSYYAMGWSRQAPGKDRELVAAISRTGGTTYYADSVKGRFTSSRDNAKNTVYLQMNSLKPEDTAVYYCNAVKAPYLSYDYWGKGTQVTVSS”, the “polyreactivity (PSR sort gate)” value was “high polyreactivity”.

Consider “QVKLVESGGGLDQAGGSLRLSCAASGRTFGSYTMGWYRQAPGKERELVAAITSGGRTNYADSVKGRFTISRDNAKNTVYLQMNSLKPEDTAVYYCAAGWRGGRYRYFAYDYWGQGTQVTVSS”, for which the “polyreactivity (PSR sort gate)” value was “high polyreactivity”.

On to “QVKLVESGGGLVQAGGRLSLSCAASGLTLSGNAMGWYRQAPGKDRELVAAITGRGGSTTYADSVKGRFTISRDNAKNTVYLQMNSVKPEDTAVYYCAATRYSWNNRVSRRHRYEYWGQGTQVTVSS”, for which the “polyreactivity (PSR sort gate)” value is listed as “high polyreactivity”.

For “QVKLVESGGGLVQAGGSLLLSCAASGITFSRNAMGLYREAPGKERELVAAINWTGGNTYYADSVKGRFTISRDNAKNTVYLQMISMKPEDTAVYYCAAERRCFVWGLGYWGQGTQVTVSS”, the “polyreactivity (PSR sort gate)” value is listed as “low polyreactivity”.

Regarding “QVKLVESGGGLVQAGGSLLLSCDASGIIFKYYAMGWYRQAPGKERELVARITARGGRTYYADSVKGRFTISRDNAKNTVYLQMNSLKPEDTAFYYCAKKLRGWHTIITDYDYWGQGTQLTVSS”, the “polyreactivity (PSR sort gate)” value is “low polyreactivity”.
